Assay results: the supplement of paper PMC10724198
± gives the standard deviation of the averaged measurements.

test system: Saccharomyces cerevisiae; assay: protein stability index of tFT-peptide fusion (C-terminal peptide) (PSI (0-1 scale)); higher = more stable (slower turnover); conditions: genetic background: wild type; temperature: 30 C
Protocol: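 Multiplexed protein stability (MPS) profiling in S. cerevisiae. Random 12-aa peptides (tFT-X12 library) are fused to the C-terminus of a sfGFP-mCherry tandem fluorescent timer, after mCherry and a GGGS linker. Cells are FACS-sorted into 8 mCherry/sfGFP bins and deep-sequenced. The protein stability index (PSI) is the read-weighted bin average, scaled from 0 (unstable) to 1 (stable). Only peptides with >10 reads are reported; cells were grown at 30 °C in SC-His with glucose.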
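Also: PSI is a weighted mean of sequencing reads over stability bins, variants kept only with over 10 reads, mCherry proximal and sfGFP distal, peptide attached via GGGS linker.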

Sequence	protein stability index
ARHESRPTHSAQ	0.6924 ± 0.0046
ARNMGLFVFNLR	0.6783 ± 0.0043
ARPAPHRSRRPS	0.68 ± 0.013
ARPAPPLPAIPL	0.663 ± 0.043
ARPPRASRISSL	0.81 ± 0.044
ARRGATRGHAHV	0.684 ± 0.046
ARSAGITSPSKD	0.788 ± 0.12
ARSPLTIGLYPF	0.6915 ± 0.0016
ARSSHVLQRSKV	0.634 ± 0.018
ARVLVLMNGVCV	0.592 ± 0.032
ASCLSPPSPFPR	0.653 ± 0.013
ASLDTALVHITL	0.622 ± 0.0064
ASLIGHLKATSP	0.672 ± 0.014
ASLLLVFSPPIS	0.703 ± 0.043
ASNEPQRQELGS	0.693 ± 0.018
ASPSAPPRPPTP	0.697 ± 0.013
ASRADSALGITV	0.727 ± 0.055
ASRSGVPGVRVG	0.685 ± 0.027
ASRYPVPLQPHH	0.6982 ± 0.0044
ASSFEGVWCTGC	0.721 ± 0.0093
ASSGGCVPTLPL	0.68 ± 0.0078
ASSLKSTQVSGV	0.72769 ± 0.00011
ASSMLPVCLVTL	0.588 ± 0.056
ASSPSLSSPPTL	0.7106 ± 0.0051
ASSVLLIAQLQS	0.619 ± 0.0054

Sequence	protein stability index
ATDCHVYRPPDL	0.6941 ± 0.0013
ATHEEGRVRCGV	0.709 ± 0.078
ATIRSSQGFKIY	0.612 ± 0.013
ATIYTAATTYHV	0.71342 ± 0.00066
ATPNRSKNKHDT	0.679 ± 0.0011
ATRSTLHDSMVS	0.714 ± 0.059
ATSPPGLLAQPA	0.663 ± 0.0017
ATTQLPPPGGMC	0.695 ± 0.024
ATYNRPPPPGLD	0.682 ± 0.068
ATYTTQQLPNYH	0.685 ± 0.011
AVCLLRLDRSRA	0.665 ± 0.027
AVERGGRGRVVG	0.639 ± 0.04
AVFLGGLLVSRW	0.682 ± 0.24
AVGFVVHNSLKK	0.739 ± 0.017
AVGGGGRLMCGV	0.645 ± 0.053
AVGGGVVGQGWV	0.604 ± 0.012
AVGGWRAGGGGG	0.731 ± 0.04
AVLRVCHVEVVP	0.634 ± 0.031
AVNFESSHPICA	0.58 ± 0.0073
AVPPQLAPPRPL	0.679 ± 0.037
AVPSGLPLMFPR	0.662 ± 0.045
AVSAGQASPGRA	0.681 ± 0.061
AVSLWAIFPLYT	0.611 ± 0.015
AVVVCGGGWWWA	0.746 ± 0.094
AWCLGVGESRPH	0.739 ± 0.035

Sequence	protein stability index
AWECCFLGRSGV	0.846 ± 0.075
AWEETISVIGVM	0.711 ± 0.048
AWGARWVCVMGG	0.626 ± 0.027
AWGGELGATSGG	0.711 ± 0.0094
AWGPGRGGGGDA	0.677 ± 0.01
AWLCSVFLLSLS	0.533 ± 0.0076
AWVVFGLRFGFD	0.534 ± 0.053
AYFGSCCCLPLG	0.69 ± 0.039
AYFLPPLPTTPP	0.692 ± 0.054
AYKGTPTCKTRR	0.689 ± 0.1
AYPRLRPSPSPH	0.7212 ± 0.0066
CAHKRTPRLGPE	0.66 ± 0.077
CAITAPINRSWN	0.702 ± 0.009
CCCVGRGVGSRF	0.703 ± 0.0054
CCDWLFCVGVAG	0.558 ± 0.0079
CCFFPPPGRTRQ	0.676 ± 0.015
CCLSVFSYESLA	0.709 ± 0.016
CCYCLTVCRWFT	0.571 ± 0.038
CDDGLIVNKVDS	0.665 ± 0.0092
CDFASTDSLLGG	0.702 ± 0.013
CDSSSVGYLVVR	0.655 ± 0.014
CEAGAGTGGADL	0.674 ± 0.018
CEFGGEEINQTV	0.6951 ± 0.0015
CEPSLPGRSRRA	0.753 ± 0.056
CESASGAAWLGG	0.723 ± 0.029

Sequence	protein stability index
CESEAGGGVTLC	0.669 ± 0.025
CFAFRPLLPSSP	0.686 ± 0.0086
CFASLLSFCPLV	0.695 ± 0.065
CFCDDRPSLRRV	0.729 ± 0.019
CFCPWFGRVCLG	0.5142 ± 0.0014
CFGMMVFFHRVI	0.534 ± 0.076
CFLFLTVSSREG	0.534 ± 0.03
CFPSFVTFSSLF	0.7722 ± 0.0041
CFRFPILTSHFY	0.592 ± 0.026
CFTPYNPSPLLS	0.715 ± 0.021
CFWSVIGVQFEV	0.629 ± 0.0095
CFYSFWQVTRFL	0.477 ± 0.062
CGEEVGGGVMIW	0.689 ± 0.015
CGKPRIHEGRLM	0.691 ± 0.02
CGLSYSISVNMR	0.627 ± 0.02
CGSGVAVGVLVL	0.6 ± 0.038
CGSNSSLQECGV	0.679 ± 0.11
CGSVERAEKGHI	0.662 ± 0.025
CGVEERRIGGVC	0.725 ± 0.034
CGVHQSRATPMS	0.663 ± 0.032
CGWTATRTCGLV	0.7541 ± 0.0063
CHMSLDGPLLGF	0.728 ± 0.2
CHVRSSILINRT	0.65 ± 0.1
